In the supplement of paper PMC12042874:
± gives the uncertainty stated by the source.

Test: amyloid nucleation score (Sup35N fusion, yeast selection) (log enrichment); library NNK2; higher = more nucleation; inactive = no reads after selection
Summary of the method: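 Nucleation score: DiMSum log enrichment of output over input reads, centred on the mode score of non-aggregating sequences. Only sequences with at least 100 input reads were kept. Reads came from Illumina sequencing of plasmid inserts before and after 7 days of growth at 30°C without adenine and uracil, in psi-negative yeast expressing Sup35N fused to peptides of 20 random codons after 24 hours of induction with 100 μM copper sulfate.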

| Substance | amyloid nucleation score |
| --- | --- |
| FGKAF | -0.375 ± 0.79 |
| FGKNLTRMSDGGTVVPLRRN | 0.255 ± 0.8 |
| FGLRIKPGEKV | 0.783 ± 0.74 |
| FGNSDLNRAMLKRAKQMRSL | inactive |
| FGRGSRLLLCAGFPLLNSYA | -0.356 ± 1.1 |
| FGSIFNSYVNEWRSLLCNID | -1.67 ± 0.39 |
| FGSVEVVRRIRSFWLFESPR | 3.58 ± 0.14 |
| FGTRHYLYSTSHHAHLGVDM | 1.83 ± 0.21 |
| FGVLYLDFCSIA | 3.93 ± 0.087 |
| FGVNS | -0.021 ± 0.63 |
| FGWAL | inactive |
| FGWLALTKR | -1.16 ± 0.34 |
| FHGPKYMSILRGELICKAPG | inactive |
| FHLLVVNFDTSLPLRQWKLE | 0.059 ± 0.3 |
| FHVIGRR | 0.951 ± 0.58 |
| FIEGVRMHLRGM | 2.86 ± 0.094 |
| FIGNF | 0.636 ± 0.19 |
| FIHRDGYSFDQVGFMGACF | 0.092 ± 1.1 |
| FIKMSNSWAYDAEFSVPLHM | 3.84 ± 0.047 |
| FIKRAHVERFSLPKTPWSVD | -1.3 ± 1 |
| FILPRLIFAGQLSCGFARGV | -1.17 ± 0.76 |
| FILRGDNLC | -1.01 ± 1 |

| Substance | amyloid nucleation score |
| --- | --- |
| FIMYFYKRTNYNFIKYHASA | 1.52 ± 0.15 |
| FINWHGMHSL | 0.89 ± 0.16 |
| FIQVSHCYAKMPYTTVTPGA | -0.191 ± 0.79 |
| FIRNYWSVYGRWSANIFDDL | 0.48 ± 0.45 |
| FIRSSIVWCC | 6.04 ± 0.077 |
| FIVMEVVEERCMSIVVESNQ | -0.804 ± 0.61 |
| FIYIVAFPIREISGLSNL | inactive |
| FIYSHYWWLWLYHTATVIPH | -1.45 ± 0.62 |
| FKAHIR | inactive |
| FKAILGG | inactive |
| FKCNIYYSFRYGSI | 7.18 ± 0.026 |
| FKFVGNSQAQVWNMCESNDS | -0.369 ± 0.64 |
| FKFVYNVKCPYWWTLSFMEV | 0.75 ± 0.47 |
| FKKTLTGCYGGGRGAMNNGK | inactive |
| FKNCDGRNIRSSHNPFNMVR | -0.857 ± 0.34 |
| FKPYF | inactive |
| FKRPDSKIVCDVNVKGALKE | inactive |
| FKSCLAGVGLFILMRFHNIA | inactive |
| FKVTTFYHGLSSMKDVASSY | -0.95 ± 0.45 |
| FLACQYNCLVDSMG | 3.26 ± 0.051 |
| FLCTNGGPLALSNGWVTSGE | 0.274 ± 0.62 |
| FLGEVCQWDRMIVARVKATR | -0.063 ± 0.29 |

| Substance | amyloid nucleation score |
| --- | --- |
| FLICGHCWGPNTYYNTSVLM | 7.8 ± 0.061 |
| FLKGPTEECQLRPSLRTNLQ | 0.069 ± 0.23 |
| FLKTKSFMVKMTGVNNQVFL | 5.96 ± 0.071 |
| FLNNDRYRR | -1.67 ± 0.78 |
| FLPYVIRRGWSCCPSGKWRN | 0.03 ± 0.55 |
| FLRENLCTDVGLTHVCCTYT | inactive |
| FLRNPPYESTTQGGRPKGAH | 0.134 ± 0.51 |
| FLSKFSCEVKTPDLMSCGKG | 4.04 ± 0.096 |
| FLVFHPRDSMNI | 1.49 ± 0.44 |
| FLVHCNILALNTCHLVYL | 5.07 ± 0.089 |
| FLVLFASVPKEVPLAYRVVK | -0.898 ± 0.61 |
| FMDRFLSWFCHE | 1.26 ± 0.37 |
| FMELLYHSASYSARFTRKSR | 2.69 ± 0.098 |
| FMIFDVGNSGKYLLSVS | -0.774 ± 0.27 |
| FMLSVPNVDRFVRRMLGTPE | 1.05 ± 0.42 |
| FMLVV | inactive |
| FMLYMRLCKFYYFFGS | -1.29 ± 0.41 |
| FMRFARMCS | 0.256 ± 0.16 |
| FMTNGFFVSLWFTCGDSVLS | 5.68 ± 0.078 |
| FNCGASKNSLKNEGKW | -0.925 ± 0.63 |
| FNIRSFICV | inactive |
| FNLADSTSSVTP | 0.048 ± 0.65 |

| Substance | amyloid nucleation score |
| --- | --- |
| FNLLEVTRPPMRMMGMM | 2.3 ± 0.076 |
| FPENDWL | -0.552 ± 0.44 |
| FPFFLHLFNYLLVRCLTVGF | inactive |
| FPFSGFVDFSVLVLRYKGSP | 1.82 ± 0.16 |
| FPLRCFTIFSMRASNF | 0.615 ± 0.66 |
| FQIRT | inactive |
| FQMMCSIDFNKCLPWLFS | inactive |
| FQNITVYSFRATGVTGQRSC | -0.447 ± 0.5 |
| FQRFVIK | -2.12 ± 0.44 |
| FRFVEFNNSGNVCPLIFTLS | -0.266 ± 0.65 |
| FRILFGFRCNLRGSSQVLIG | inactive |
| FRLILWPIDCAINTNRRCNR | 4.38 ± 0.051 |
| FRLYFHPGVNGAET | -0.356 ± 0.64 |
| FRNTWFCFLLKLLTS | -0.818 ± 0.42 |
| FRRCGPDGGIWLDLAACKKI | 0.1 ± 0.38 |
| FRVIYDRHTGILRSHERAKG | -0.551 ± 0.35 |
| FRVPF | 2.03 ± 0.24 |
| FRVTIMVIQNSPTVSPGLAG | 4.31 ± 0.08 |
| FRWGFVSPDRSIGDVFLQLC | -0.137 ± 1.1 |
